Results from patent US20240400614A1, “CLEAVABLE PEPTIDES AND METHODS OF USE THEREOF” (Bright Peak Therapeutics AG, priority 2023, published 2024).
Square brackets hold non-standard residues; d marks the D form. Ends that are not written are not given here. Tyr(3-NO2) = N[C@@H](Cc1ccc(O)c([N+](=O)[O-])c1)C(=O)O; Nle = CCCC[C@H](N)C(=O)O; 2Abz = Nc1ccccc1C(=O)O

Experiments:
Assay type in all cases: biochemical
[1] = target: uPA (Homo sapiens, UniProt P00749); assay: FRET peptide cleavage efficiency with uPA; details: standard conditions (Table 8)
[2] = target: T1, matriptase (Homo sapiens, UniProt Q9Y5Y6); assay: FRET peptide cleavage efficiency with matriptase
T1 construct: purchased R&D Systems 3946-SEB
T1 sequence (Q9Y5Y6 615-855 limits assumed): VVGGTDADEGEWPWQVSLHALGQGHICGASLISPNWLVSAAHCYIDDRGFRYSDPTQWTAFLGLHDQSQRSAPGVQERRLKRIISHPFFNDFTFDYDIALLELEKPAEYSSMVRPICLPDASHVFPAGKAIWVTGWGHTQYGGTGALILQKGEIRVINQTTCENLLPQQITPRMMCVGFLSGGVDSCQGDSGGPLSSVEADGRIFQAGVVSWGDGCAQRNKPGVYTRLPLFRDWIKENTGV

[3] = target: T2, MMP-2 (Homo sapiens, UniProt P08253); assay: FRET peptide cleavage efficiency with MMP-2
T2 construct: purchased SIGMA PF023
T2 sequence (P08253 110-660): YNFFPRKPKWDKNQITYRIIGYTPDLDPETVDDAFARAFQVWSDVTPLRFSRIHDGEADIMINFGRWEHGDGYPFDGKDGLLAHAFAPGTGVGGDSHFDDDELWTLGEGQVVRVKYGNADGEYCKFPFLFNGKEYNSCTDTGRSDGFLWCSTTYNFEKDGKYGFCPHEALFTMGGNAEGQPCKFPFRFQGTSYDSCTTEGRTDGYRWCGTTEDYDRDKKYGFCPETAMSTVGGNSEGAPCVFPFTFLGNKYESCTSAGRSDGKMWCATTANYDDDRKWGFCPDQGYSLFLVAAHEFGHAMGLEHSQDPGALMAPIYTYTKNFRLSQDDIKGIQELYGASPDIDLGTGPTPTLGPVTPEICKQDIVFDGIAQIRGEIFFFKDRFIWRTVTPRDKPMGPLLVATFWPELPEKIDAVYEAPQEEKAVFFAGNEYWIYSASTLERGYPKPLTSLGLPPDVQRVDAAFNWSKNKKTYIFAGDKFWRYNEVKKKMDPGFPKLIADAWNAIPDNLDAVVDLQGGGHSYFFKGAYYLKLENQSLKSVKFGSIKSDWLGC

[4] = target: T3, MMP-7 (Homo sapiens, UniProt P09237); assay: FRET peptide cleavage efficiency with MMP-7 (standard pH 7.5; also pH 6.5)
T3 construct: purchased SIGMA CC1059
T3 sequence (P09237 95-267): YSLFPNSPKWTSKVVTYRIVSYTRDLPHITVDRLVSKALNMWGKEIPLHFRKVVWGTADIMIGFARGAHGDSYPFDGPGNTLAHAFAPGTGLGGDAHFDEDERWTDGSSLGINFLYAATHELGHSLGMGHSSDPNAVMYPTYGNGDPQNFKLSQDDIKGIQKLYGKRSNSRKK

[5] = target: T4, MMP-9 (Homo sapiens, UniProt P14780); assay: FRET peptide cleavage efficiency with MMP-9 (standard pH 7.5; also pH 6.5)
T4 construct: purchased SIGMA PF024
T4 sequence (P14780 94-707): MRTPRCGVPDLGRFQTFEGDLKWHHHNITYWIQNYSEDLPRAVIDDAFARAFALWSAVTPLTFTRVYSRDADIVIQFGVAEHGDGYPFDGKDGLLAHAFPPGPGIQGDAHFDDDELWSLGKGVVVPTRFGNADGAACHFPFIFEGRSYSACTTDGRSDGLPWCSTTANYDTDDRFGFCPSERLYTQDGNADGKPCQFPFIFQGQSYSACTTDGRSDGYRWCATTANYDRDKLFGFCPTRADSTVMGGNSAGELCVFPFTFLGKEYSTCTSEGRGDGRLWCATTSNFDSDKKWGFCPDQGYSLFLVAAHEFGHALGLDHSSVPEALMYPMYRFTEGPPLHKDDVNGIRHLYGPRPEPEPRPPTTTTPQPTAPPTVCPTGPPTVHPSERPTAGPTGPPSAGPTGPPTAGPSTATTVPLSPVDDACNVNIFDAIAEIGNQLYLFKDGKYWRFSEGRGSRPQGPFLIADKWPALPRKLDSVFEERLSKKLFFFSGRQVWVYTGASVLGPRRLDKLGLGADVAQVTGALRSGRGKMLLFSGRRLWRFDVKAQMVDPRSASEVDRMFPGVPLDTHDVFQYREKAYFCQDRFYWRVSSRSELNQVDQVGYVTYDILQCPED

[6] = target: Kallikrein-3 (Homo sapiens, UniProt P07288); assay: FRET peptide cleavage efficiency with Kallikrein-3; details: peptide 200 uM, Kallikrein-3 2 μg/ml, 37° C., pH 8
Kallikrein-3, sequence (P07288 25-261, species assumed): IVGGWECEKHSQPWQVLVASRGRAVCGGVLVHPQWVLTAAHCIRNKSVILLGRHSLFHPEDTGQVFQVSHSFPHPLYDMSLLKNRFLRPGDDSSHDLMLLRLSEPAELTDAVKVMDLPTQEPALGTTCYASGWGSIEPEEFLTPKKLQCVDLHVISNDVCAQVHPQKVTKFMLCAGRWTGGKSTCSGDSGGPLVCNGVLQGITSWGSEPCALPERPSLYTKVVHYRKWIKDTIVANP

[7] = t = 60 min, standard conditions (Table 8)
[8] = t = 120 min, standard conditions (Table 8)
[9] = t = 15 min, standard conditions (Table 8)
[10] = 200 uM linker, 1 ug/ml protease, 37° C., buffer B pH 9.0

% vcleavage uPA t = 15 min [1] [%]	% cleavage uPA t = 60 min [1] [%]	% cleavage uPA t = 120 min [1] [%]	% cleavage Matriptase t = 15 min ([2]; standard conditions (Table 8)) [%]	% cleavage Matriptase t = 60 min ([2]; standard conditions (Table 8)) [%]	% cleavage Matriptase t = 120 min ([2]; standard conditions (Table 8)) [%]	% cleavage MMP-2 t = 15 min ([3]; t = 15 min (Table 9)) [%]	% cleavage MMP-2 t = 60 min ([3]; t = 60 min (Table 9)) [%]	% cleavage MMP-2 t = 60 min [3, 7] [%]	% cleavage MMP-2 t = 120 min ([3]; t = 120 min (Table 9)) [%]	% cleavage MMP-2 t = 120 min [3, 8] [%]	% cleavage MMP-7 t = 15 min ([4]; t = 15 min (Table 9)) [%]	% cleavage MMP-7 t = 15 min [4, 9] [%]	% cleavage MMP-7 t = 60 min ([4]; t = 60 min (Table 9)) [%]	% cleavage MMP-7 t = 60 min [4, 7] [%]	% cleavage MMP-7 t = 120 min ([4]; t = 120 min (Table 9)) [%]	% cleavage MMP-7 t = 120 min [4, 8] [%]	% cleavage MMP-9 t = 15 min ([5]; t = 15 min (Table 9)) [%]	% cleavage MMP-9 t = 15 min [5, 9] [%]	% cleavage MMP-9 t = 60 min ([5]; t = 60 min (Table 9)) [%]	Substance	also measured
1	1	2	4	17	33	2	5	5	9	9	20	20	65	65	88	88	1	1	2	SGRVQPLVD (not fully specified (N-terminus, C-terminus)) [LNK047]	% cleavage MMP-9 t = 60 min [5, 7]: 2%; % cleavage MMP-9 t = 120 min ([5]; t = 120 min (Table 9)): 4%; % cleavage MMP-9 t = 120 min [5, 8]: 4%
0	0	0	0	0	0	0	0	0	0	0	0	0	0	0	0	0	0	0	0	SGRVY-Nle-LQG ([2Abz]SGRVY[Nle]LQG[Tyr(3-NO2)]-NH2) [LNK045]	% cleavage MMP-9 t = 60 min [5, 7]: 0%; % cleavage MMP-9 t = 120 min ([5]; t = 120 min (Table 9)): 0%; % cleavage MMP-9 t = 120 min [5, 8]: 0%
0	0	0	0	0	0	0	0	0	1	1	1	1	4	4	9	9	0	0	1	SGRVYMLQG ([2Abz]SGRVYMLQG[Tyr(3-NO2)]-NH2) [LNK044]	% cleavage MMP-9 t = 60 min [5, 7]: 1%; % cleavage MMP-9 t = 120 min ([5]; t = 120 min (Table 9)): 2%; % cleavage MMP-9 t = 120 min [5, 8]: 2%
																				SQLYSSPG ([2Abz]SQLYSSPG[Tyr(3-NO2)]-NH2) [LNK068]	Kallikrein-3 t = 1 h % cleavage ([6]; t = 1 h): 31%; Kallikrein-3 t = 3 h % cleavage ([6]; t = 3 h): 70%; Kallikrein-3 t = 6 h % cleavage ([6]; t = 6 h): 94%; Kallikrein-3 t = 8 h % cleavage ([6]; t = 8 h): 100%; % cleavage Matriptase t = 15 min [2, 10]: 0%; % cleavage Matriptase t = 60 min [2, 10]: 0%; % cleavage Matriptase t = 120 min [2, 10]: 0%; % cleavage MMP-2 t = 15 min ([3]; t = 15 min, 200 uM linker, 1 ug/ml protease, 37° C., buffer C pH 7.5): 2%; % cleavage MMP-2 t = 60 min ([3]; t = 60 min, 200 uM linker, 1 ug/ml protease, 37° C., buffer C pH 7.5): 9%; % cleavage MMP-2 t = 120 min ([3]; t = 120 min, 200 uM linker, 1 ug/ml protease, 37° C., buffer C pH 7.5): 18%
